Source: US20120045819A1
Positions of bridges follow the written chain, without caps; N, C: chain ends. No end group written: not given here. *: point of attachment. NHNH2 = NN*

Tests used:
[1] = biological target: REFACTO® (recombinant factor VIII-like polypeptide consisting of amino acids 1-743 and 1638 through 2332 of human factor VIII) (human) (UniProt P00451); experiment: phage ELISA, ratio with target to without target
[2] = biological target: REFACTO® (recombinant factor VIII-like polypeptide consisting of amino acids 1-743 and 1638 through 2332 of human factor VIII) (human) (UniProt P00451); experiment: phage ELISA on the factor VIII target (REFACTO), anti-M13-HRP
[3] = biological target: REFACTO® (recombinant factor VIII-like polypeptide consisting of amino acids 1-743 and 1638 through 2332 of human factor VIII) (human) (UniProt P00451); experiment: affinity column, peptide on Toyopearl Formyl 650-M; fraction quantified by RP-HPLC
[4] = biological target: REFACTO® (recombinant factor VIII-like polypeptide consisting of amino acids 1-743 and 1638 through 2332 of human factor VIII) (human) (UniProt P00451); experiment: affinity column, peptide on Toyopearl Formyl 650-M; fraction quantified by factor VIII activity assay
[5] = biological target: REFACTO® (recombinant factor VIII-like polypeptide consisting of amino acids 1-743 and 1638 through 2332 of human factor VIII) (human) (UniProt P00451); experiment: batch binding to peptide beads; fractions by sandwich ELISA; % of input
[6] = biological target: REFACTO® (recombinant factor VIII-like polypeptide consisting of amino acids 1-743 and 1638 through 2332 of human factor VIII) (human) (UniProt P00451); experiment: batch binding to peptide beads; fractions by sandwich ELISA; % of total recovered

REFACTO® (recombinant factor VIII-like polypeptide consisting of amino acids 1-743 and 1638 through 2332 of human factor VIII) (human), sequence (P00451 20-762, chain 1 of 2): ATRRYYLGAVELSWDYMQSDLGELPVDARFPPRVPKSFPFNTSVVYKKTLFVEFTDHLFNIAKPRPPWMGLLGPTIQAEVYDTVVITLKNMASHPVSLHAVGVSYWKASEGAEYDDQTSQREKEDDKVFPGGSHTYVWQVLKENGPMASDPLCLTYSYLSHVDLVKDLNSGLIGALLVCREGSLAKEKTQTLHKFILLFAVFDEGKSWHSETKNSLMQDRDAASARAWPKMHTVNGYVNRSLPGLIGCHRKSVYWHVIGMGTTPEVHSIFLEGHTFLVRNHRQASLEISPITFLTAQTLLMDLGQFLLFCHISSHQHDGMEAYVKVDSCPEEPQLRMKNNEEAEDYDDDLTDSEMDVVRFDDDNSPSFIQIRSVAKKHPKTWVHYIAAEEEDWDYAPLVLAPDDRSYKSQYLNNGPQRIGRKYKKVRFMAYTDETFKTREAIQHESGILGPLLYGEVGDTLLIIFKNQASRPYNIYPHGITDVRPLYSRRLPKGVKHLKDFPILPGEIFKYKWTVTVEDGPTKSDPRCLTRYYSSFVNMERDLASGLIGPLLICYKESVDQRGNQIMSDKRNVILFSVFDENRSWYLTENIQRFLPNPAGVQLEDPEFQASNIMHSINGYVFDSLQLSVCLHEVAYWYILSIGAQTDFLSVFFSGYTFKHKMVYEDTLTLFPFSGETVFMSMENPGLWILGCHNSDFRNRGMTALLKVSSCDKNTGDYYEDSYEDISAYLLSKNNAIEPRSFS
REFACTO® (recombinant factor VIII-like polypeptide consisting of amino acids 1-743 and 1638 through 2332 of human factor VIII) (human), sequence (P00451 1657-2351, chain 2 of 2): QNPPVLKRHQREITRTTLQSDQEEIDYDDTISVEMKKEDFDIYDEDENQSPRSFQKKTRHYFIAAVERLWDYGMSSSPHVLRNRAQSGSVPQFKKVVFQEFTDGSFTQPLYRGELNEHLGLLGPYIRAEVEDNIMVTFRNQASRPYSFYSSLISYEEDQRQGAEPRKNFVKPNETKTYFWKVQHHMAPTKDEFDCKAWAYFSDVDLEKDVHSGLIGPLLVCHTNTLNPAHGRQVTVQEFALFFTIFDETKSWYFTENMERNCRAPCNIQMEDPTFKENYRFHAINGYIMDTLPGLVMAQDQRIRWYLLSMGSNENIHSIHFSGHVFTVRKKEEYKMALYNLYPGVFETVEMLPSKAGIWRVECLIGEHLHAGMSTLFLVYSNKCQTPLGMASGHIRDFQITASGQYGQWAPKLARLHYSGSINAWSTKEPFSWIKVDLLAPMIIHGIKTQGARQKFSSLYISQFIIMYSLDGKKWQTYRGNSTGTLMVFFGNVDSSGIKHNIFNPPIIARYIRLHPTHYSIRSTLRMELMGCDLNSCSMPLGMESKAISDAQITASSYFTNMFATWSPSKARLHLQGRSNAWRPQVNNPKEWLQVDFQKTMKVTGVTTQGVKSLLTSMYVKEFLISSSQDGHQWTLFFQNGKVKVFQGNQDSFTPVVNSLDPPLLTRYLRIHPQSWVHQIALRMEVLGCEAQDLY

## FGCSWLFPCPF [TN7 phage isolate A08]
[1]
  R (ELISA score with target / ELISA score without target): 8
[2]
  ELISA signal: 0.4 OD630

## FCWVFPFHHCF [TN9 phage isolate 06 (D06-TN9)]
[1]
  R (ELISA score with target / ELISA score without target): 6
[2]
  ELISA signal: 0.3 OD630

## FCWVFNWVHCD [TN9/1 phage isolate … (SEQ ID NO: 75)]
[1]
  R (ELISA score with target / ELISA score without target): 14

## AEGTGDFCWVFPFHHCFDPGPEGGGS-NHNH2 (disulfide 8-16 (inferred)) [CS-460 (…-NHNH2)]
[3]
  % recovery in Flow: 24.6%
  % recovery in elution A: 28.8%
  % recovery in elution B: 0%
  % recovery in pH2: 0%
[4]
  % recovery in Flow: 28.4%
  % recovery in elution A: 0%

## HPCGAWFNPCPR [TN8 phage isolate 01 (SEQ ID NO: 19)]
[2]
  ELISA signal: 0.2 OD630

## HPCGSWLRPCLH [TN8 phage isolate 10 (C10-TN8)]
[1]
  R (ELISA score with target / ELISA score without target): 16
[2]
  ELISA signal: 1 OD630

## HLCFAWFRPCDA [TN8 phage isolate 12 (SEQ ID NO: 17)]
[1]
  R (ELISA score with target / ELISA score without target): 8
[2]
  ELISA signal: 0.4 OD630

## RGCGSWLRPCLD [TN8 phage isolate 05 (SEQ ID NO: 11)]
[2]
  ELISA signal: 0.2 OD630

## HPCGSWLHPCAA [TN8 phage isolate 04 (SEQ ID NO: 12)]
[1]
  R (ELISA score with target / ELISA score without target): 6
[2]
  ELISA signal: 0.3 OD630

## FCWVFNFSHCS [TN9 phage isolate 03 (SEQ ID NO: 26)]
[1]
  R (ELISA score with target / ELISA score without target): 24
[2]
  ELISA signal: 1.1 OD630

## FCWVFPFNHCD [TN9 phage isolate 02 (SEQ ID NO: 27)]
[1]
  R (ELISA score with target / ELISA score without target): 8
[2]
  ELISA signal: 0.4 OD630

## FCWVFQFRHCH [TN9/1 phage isolate … (SEQ ID NO: 77)]
[1]
  R (ELISA score with target / ELISA score without target): 8

## AEGTGDFGCSWLFPCPFDPGPEGGGS-NHNH2 (disulfide 9-15) [CS-456 (…-NHNH2)]
[5]
  % of input recovered in Eluate: 24%
  % of input recovered in Unbound: 47%
  % of input recovered in Wash: 20%
[3]
  % recovery in Flow: 3.4%
  % recovery in elution A: 44.8%
  % recovery in elution B: 0%
  % recovery in pH2: 0%
[4]
  % recovery in Flow: 4.8%
  % recovery in elution A: 43%

## HACGSWFRPCHA [TN8 phage isolate 07 (SEQ ID NO: 15)]
[1]
  R (ELISA score with target / ELISA score without target): 6
[2]
  ELISA signal: 0.4 OD630

## HPCGAWLRPCYN [TN8 phage isolate 08 (SEQ ID NO: 20)]
[1]
  R (ELISA score with target / ELISA score without target): 20
[2]
  ELISA signal: 1 OD630

## FCWVFPFQHCA [TN9 phage isolate 09 (E09-TN9)]
[1]
  R (ELISA score with target / ELISA score without target): 24
[2]
  ELISA signal: 1.1 OD630

## HPCGSWFNPCAH [TN8 phage isolate 02 (SEQ ID NO: 13)]
[1]
  R (ELISA score with target / ELISA score without target): 8
[2]
  ELISA signal: 0.3 OD630

## FHCIGVWFCLH [TN7 phage isolate A09]
[2]
  ELISA signal: 0.1 OD630

## HSCGSWLFPCFA [TN7 phage isolate A06]
[1]
  R (ELISA score with target / ELISA score without target): 10
[2]
  ELISA signal: 0.5 OD630

## AEGTGDFCWVFPFQHCADPGPEGGGS-NHNH2 (disulfide 8-16 (inferred)) [CS-459 (…-NHNH2)]
[3]
  % recovery in Flow: 1.6%
  % recovery in elution A: 42.1%
  % recovery in elution B: 0%
  % recovery in pH2: 0%
[4]
  % recovery in Flow: 6.4%
  % recovery in elution A: 31.2%

## HRCGSWLHPCLA [TN8 phage isolate 11/G10 (A11/G10-TN8)]
[1]
  R (ELISA score with target / ELISA score without target): 6
[2]
  ELISA signal: 0.3 OD630

## AEGTGDHPCGSWLRPCLHDPGPEGGGS-NHNH2 (disulfide 9-16 (inferred)) [CS-453 (…-NHNH2)]
[3]
  % recovery in Flow: 0%
  % recovery in elution A: 43.2%
  % recovery in elution B: 0%
  % recovery in pH2: 0%
[4]
  % recovery in Flow: 0%
  % recovery in elution A: 26.4%

## HLCGAWFRPCDA [TN8 phage isolate 02 (E02-TN8, SEQ ID NO: 16)]
[1]
  R (ELISA score with target / ELISA score without target): 6
[2]
  ELISA signal: 0.4 OD630

## PHCNWLFPCSL [TN7 phage isolate D03]
[2]
  ELISA signal: 0.2 OD630

## HPCGSWFRPCFH [TN8 phage isolate 02 (SEQ ID NO: 14)]
[1]
  R (ELISA score with target / ELISA score without target): 16
[2]
  ELISA signal: 0.7 OD630

## AEGTGDFHCIGVWFCLHDPGPEGGGS-NHNH2 (disulfide 9-15 (inferred)) [CS-455 (…-NHNH2)]
[3]
  % recovery in Flow: 65.8%
  % recovery in elution A: 1.4%
  % recovery in elution B: 0%
  % recovery in pH2: 0%
[4]
  % recovery in Flow: 61.6%
  % recovery in elution A: 1.3%

## HGCGAWFRPCHA [TN8 phage isolate 01 (SEQ ID NO: 18)]
[2]
  ELISA signal: 0.2 OD630

## FCWVFPFNHCS [TN9 phage isolate 12 (SEQ ID NO: 28)]
[1]
  R (ELISA score with target / ELISA score without target): 18
[2]
  ELISA signal: 1 OD630

## FCHVFHFSHCD [TN9 phage isolate 01 (SEQ ID NO: 24)]
[2]
  ELISA signal: 0.2 OD630

## RLCSWVSPCSA [TN7 phage isolate C5/G10]
[1]
  R (ELISA score with target / ELISA score without target): 10
[2]
  ELISA signal: 0.5 OD630

## FCWVFAFDHCH [TN9 phage isolates 04 (B04-TN9) and 01 displaying Phe-Cys-Trp-Val-Phe-Ala-Phe-Asp-His-Cys-His]
[1]
  R (ELISA score with target / ELISA score without target): 24

## FCWVHPFAHCL [TN9 phage isolate 02 (SEQ ID NO: 23)]
[2]
  ELISA signal: 0.2 OD630

## RLCSWISPCSA [TN7 phage isolate D04]
[1]
  R (ELISA score with target / ELISA score without target): 6
[2]
  ELISA signal: 0.3 OD630

## AEGTGDFCWVFAFDHCHDPGPEGGGS-NHNH2 (disulfide 8-16) [CS-458 (…-NHNH2)]
[5]
  % of input recovered in Eluate: 47%
  % of input recovered in Unbound: 20%
  % of input recovered in Wash: 10%
[6]
  % of total recovered in Eluate: 27%
  % of total recovered in Unbound: 59%
  % of total recovered in Wash: 14%
[3]
  % recovery in Flow: 1.8%
  % recovery in elution A: 54.3%
  % recovery in elution B: 0%
  % recovery in pH2: 0%
[4]
  % recovery in Flow: 1.4%
  % recovery in elution A: 55.6%

## FCHVFNFVHCS [TN9 phage isolate 01 (SEQ ID NO: 31)]
[1]
  R (ELISA score with target / ELISA score without target): 8
[2]
  ELISA signal: 0.5 OD630

## FCHVFPFLHCD [TN9 phage isolate 11 (SEQ ID NO: 32)]
[2]
  ELISA signal: 0.2 OD630

## AEGTGDHLCGAWFRPCDADPGPEGGGS-NHNH2 (disulfide 9-16) [CS-454 (…-NHNH2)]
[5]
  % of input recovered in Eluate: 49%
  % of input recovered in Unbound: 24%
  % of input recovered in Wash: 12%
[3]
  % recovery in Flow: 2.5%
  % recovery in elution A: 45.1%
  % recovery in elution B: 0%
  % recovery in pH2: 0%
[4]
  % recovery in Flow: 2.2%
  % recovery in elution A: 42.4%
